Measured values from article PMC11722252.

Target: Caenorhabditis elegans leucine-rich-repeat-containing GPCR (CeLGR), residues Gln31 to Arg712 (Caenorhabditis elegans) (UniProt G5EG04)
Experiment: MST

C. elegans α2/β5 heterodimeric hormone (Ceα2β5) (from UniProt A7DT38 20-125) (complex)
Kd: 153 nM
